The values below come from patent publication US10653749B2, “Targeting GIV-GEF-GI signaling for treating diverse diseases” (The Regents of the University of California, priority 2015, dated 2020).

In one experiment the test system is L6 myotubes. The experiment is described as follows: Uptake of TAT peptides and actin staining in L6 myotubes (confocal). The class given is cell-based, rat. To be noted: 0.2% FBS overnight. The source says:
Dilutions of antibodies are as follows: anti-phospho-GIV-Tyr1764 (1:200) (Ventana/Roche and Spring Biosciences); anti-HA (1:300) (Covance); anti-GFP, mouse anti-InsRβ and mouse anti-phospho-IRS1 (1:200) from Santa Cruz Biotechnologies; DAPI 1:1,000 (Molecular Probes); Secondary goat anti-rabbit (594) and goat anti-mouse (488) Alexa conjugated antibodies (1:500) from Molecular Probes. Coverslips were mounted with ProLong Gold (Life Technologies). Cells were imaged on a Leica SPE confocal microscope using a 63× oil objective using 488, 561 and 405 laser lines for excitation. Images were scanned using a line-average of 3. All images were processed using ImageJ software and assembled into figure panels using Photoshop and Illustrator (Adobe).
Transfection was carried out with GeneJuice (Novagen) for DNA plasmids or Oligofectamine (Invitrogen) for siRNA oligos according to manufacturer's protocols. Silencer negative Control scrambled (Scr) siRNA used as control was purchased from Ambion and the previously validated (Enomoto et al., 2005) GIV siRNA sequence used was custom-ordered from Dharmacon. For TAT-construct transduction, cells were incubated with 300-800 nM of the TAT-proteins for 30 min at 37° C. prior to three washes with PBS and addition of fresh growth media. […]

The test system of experiment [1] is EGFR autophosphorylation and Akt signaling. The experiment is described as follows: EGF signaling in TAT-transduced HeLa cells by immunoblotting. It is filed as cell-based. Conditions: 50 nM EGF; for EGFR autophosphorylation: pY1068. Here is the method:
For immunoblotting, protein samples were separated by SDS/PAGE and transferred to PVDF membranes (Millipore). Membranes were blocked with PBS supplemented with 5% nonfat milk (or with 5% BSA when probing for phosphorylated proteins) before incubation with primary antibodies. Infrared imaging with two-color detection and quantification were performed using a Li-Cor Odyssey imaging system (50, 52, 53). Primary antibodies were diluted as follows: anti-His 1:1,000; anti-GIV/Girdin (T-13) 1:500; antiphospho EGFR 1068 (1:1000); anti-phospho-Akt (Ser473) 1:250; anti-Akt 1:500; anti-Gαi3 1:333; anti-pan-GP 1:250; anti-α tubulin 1: 2,000. All Odyssey images were processed using Image J software (NIH) and assembled for presentation using Photoshop and Illustrator software (Adobe).
For TAT-protein transduction, cells were incubated with 400-800 nM of the TAT-proteins for 30 min at 37° C. prior to three washes with PBS and addition of fresh growth media. For analysis of EGF signaling, subconfluent monolayers of HeLa cells were treated with TAT proteins for 30 min, washed with PBS, and subsequently stimulated with EGF (50 nM) at 4 h after TAT transduction. For scratch-wound assays, HeLa monolayers were treated with TAT proteins before and at 12 h after wounding. For cancer cell invasion assays, highly invasive MDA MB 231 breast cancer cells were plated in 6-well dishes, treated with TAT-peptides for 30 min and subsequently lifted and placed in transwell chamber in the presence of serum-free media. For L×2 myofibroblast activation assays, cells were first treated with TAT-proteins for 30 min, starved in serum-free media, and subsequently treated with 1.5 ng/ml TGF-β for 24 h. TAT-protein transduction was repeated every 8 h during the course of TGFβ stimulation (total 3 treatments). For assays involving insulin stimulation of TAT-treated L6 myotubes, such stimulation was carried out 90 min after transduction. In each case, whole cell lysates prepared from cells in duplicate wells were analyzed for signaling pathways and TAT-protein uptake by immunoblotting.

The subject of another experiment is MDA MB231 cells. The experiment is described as follows: Transwell tumor cell invasion assay through basement membrane extract. The class given is cell-based. Conditions: compared to TAT-control peptides; 50 nM EGF. Here is the method:
Briefly, after a serum starvation overnight, MDA MB231 cells were first transduced with TAT peptides for 30 min as above. Transduced cells were trypsinized, counted, and placed in a Corning transwell permeable support coated with Cultrex Basement Membrane Extract (7×10^4 cells per well). Media without FBS but containing EGF ligand (50 nM) was placed within the bottom chamber of each well to trigger directional 3D invasion. As done in the 2D migration assays, transduction with TAT peptides was repeated one more time ˜10-12 h into the assay (total of two times). At 22-24 h, a Q-tip was used to meticulously remove all cells from the surface of the permeable membrane facing the upper chamber. […] To quantify cell invasion (expressed as number of invasive cells/high power field) ˜10-12 random fields per membrane insert per condition were analyzed for number of crystal violet stained cells. […]
Invasion assays were performed using Corning® Transwell plates according to the manufacturer's protocol. Transduced cells were trypsinized, counted and placed in a Corning transwell permeable support coated with Cultrex® Basement Membrane Extract (7×10^4 cells/well). […] Cell invasion (expressed as number of invasive cells/high power field) was quantified by analyzing ˜10-12 random fields/membrane insert/condition for number of crystal violet stained cells.

Numbering of substitutions follows the chain as printed. In names and notes the source's numbering stands. Entries after “also recorded” stand apart in the source; their conditions may differ.

B1: TAT-GIV-CT-WT: Recombinant cell-permeable fusion of TAT-PTD, His and HA tags, linker and human GIV C-terminus (aa 1660-1870), wild type; SEQ ID NO: 2 (protein)
chain: MRGSHHHHHHGMASMTGGQQMGRDLYDDDDKDRWGSKLGYGRKKRRQRRRGGSTMSGYPYDVPDYAGSMGGSGHSGETLESRHHKIKTGSPGSEVVTLQQFLEESNKLTSVQIKSSSQENLLDEVMKSLSVSSDFLGKDKPVSCGLARSVSGKTPGDFYDRRTTKPEFLRPGPRKTEDTYFISSAGKPTPGTQGKIKLVKESSLSRQSKDSNPYATLPRASSVISTAEGTTRRTSIHDFLTKDSRLPISVDSPPAAADSNTTAASNVDKVQESRNSKSRSREQQSS
Consider B1, for which the “actin stress-fiber formation in L6 myotubes” value in the experiment on L6 myotubes is “enhancement”. In experiment [1], the “Akt signaling (phosphorylation at Ser 473)” value is “enhances” and the EGFR autophosphorylation result is given as “enhances”. Moreover, in the experiment on MDA MB231 cells, the “invasion through basement membrane matrix in response to EGF gradient” value is given as “significantly enhanced”.

B2: TAT-GIV-CT-FA: GEF-deficient F1685A mutant of the TAT-GIV-CT peptide, dominant-negative; SEQ ID NO: 3 (protein)
chain: B1 chain with F101A
Regarding B2, the “actin stress-fiber formation in L6 myotubes” value with L6 myotubes is “disrupted”. For the same molecule, in experiment [1], the “Akt signaling (phosphorylation at Ser 473)” value is listed as “inhibited; also recorded: suppresses” and the EGFR autophosphorylation entry was “inhibited; also recorded: suppresses”. The “invasion through basement membrane matrix in response to EGF gradient” value with MDA MB231 cells was “virtually abolished”.
